Measured values: patent publication US20130005646A1 (Novo Nordisk, published 2013)
Starred links: 1 amine or outer side, 2 acyl side, 3 side chain; linkers in the order of their positions; H or OH if unused. Positions of bridges follow the written chain, without caps; N, C: chain ends. *: point of attachment. C20 diacid = O=C(O)CCCCCCCCCCCCCCCCCCC(=O)*; γGlu = O=C(O)[C@H](CCC(=O)[*:2])N[*:1]

T1: human calcitonin (a) receptor (human, UniProt P30988 25-474)
T1 sequence (looked up): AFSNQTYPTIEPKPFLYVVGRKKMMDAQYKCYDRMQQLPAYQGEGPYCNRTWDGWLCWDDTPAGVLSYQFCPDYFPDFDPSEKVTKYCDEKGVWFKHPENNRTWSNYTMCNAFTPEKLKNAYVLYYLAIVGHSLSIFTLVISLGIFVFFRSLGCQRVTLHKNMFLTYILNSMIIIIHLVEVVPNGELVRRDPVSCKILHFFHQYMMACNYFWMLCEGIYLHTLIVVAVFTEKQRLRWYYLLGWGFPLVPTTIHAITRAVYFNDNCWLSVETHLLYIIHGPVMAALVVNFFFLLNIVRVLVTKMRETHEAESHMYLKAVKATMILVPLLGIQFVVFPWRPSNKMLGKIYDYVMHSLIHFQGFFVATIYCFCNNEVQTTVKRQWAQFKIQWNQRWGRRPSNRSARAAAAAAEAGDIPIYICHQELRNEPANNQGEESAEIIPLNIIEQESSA

T2: human amylin 3(a) receptor (human calcitonin receptor + RAMP-3) (human, UniProt P30988 25-474; O60896 24-148)
T2 sequence (looked up) 1: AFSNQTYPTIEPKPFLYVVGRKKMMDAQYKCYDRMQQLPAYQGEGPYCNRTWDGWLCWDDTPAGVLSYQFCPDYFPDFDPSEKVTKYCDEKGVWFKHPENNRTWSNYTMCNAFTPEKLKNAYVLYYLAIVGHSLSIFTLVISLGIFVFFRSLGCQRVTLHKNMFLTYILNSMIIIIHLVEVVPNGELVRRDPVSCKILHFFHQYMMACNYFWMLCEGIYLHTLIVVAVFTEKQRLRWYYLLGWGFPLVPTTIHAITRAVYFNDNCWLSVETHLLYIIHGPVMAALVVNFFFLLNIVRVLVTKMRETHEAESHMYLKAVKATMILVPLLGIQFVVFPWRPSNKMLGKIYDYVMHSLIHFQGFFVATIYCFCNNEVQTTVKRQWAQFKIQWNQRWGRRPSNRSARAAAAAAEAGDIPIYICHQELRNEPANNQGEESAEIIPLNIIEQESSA
T2 sequence (looked up) 2: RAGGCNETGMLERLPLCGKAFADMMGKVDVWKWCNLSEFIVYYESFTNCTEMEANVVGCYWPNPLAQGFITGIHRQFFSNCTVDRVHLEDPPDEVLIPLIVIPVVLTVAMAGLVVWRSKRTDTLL


What was measured:
[1] = biological target: T1, human calcitonin (a) receptor; assay: cell-based or functional assay
[2] = biological target: T2, human amylin 3(a) receptor (human …); assay: cell-based or functional assay

Binder | CTa receptor human EC50 [1] | Amylin receptor human EC50 [2]
{C20 diacid-γGlu}-GRCNTATCATQRLANFLVHSSNNFGPILPPTNVGSHTY-NH2 (disulfide 3-8; SMILES CC[C@H](C)[C@H](NC(=O)[C@@H]1CCCN1C(=O)CNC(=O)[C@H](Cc1ccccc1)NC(=O)[C@H](CC(N)=O)NC(=O)[C@H](CC(N)=O)NC(=O)[C@H](CO)NC(=O)[C@H](CO)NC(=O)[C@H](Cc1c[nH]cn1)NC(=O)[C@@H](NC(=O)[C@H](CC(C)C)NC(=O)[C@H](Cc1ccccc1)NC(=O)[C@H](CC(N)=O)NC(=O)[C@H](C)NC(=O)[C@H](CC(C)C)NC(=O)[C@H](CCCNC(=N)N)NC(=O)[C@H](CCC(N)=O)NC(=O)[C@@H](NC(=O)[C@H](C)NC(=O)[C@@H]1CSSC[C@H](NC(=O)[C@H](CCCNC(=N)N)NC(=O)CNC(=O)CC[C@H](NC(=O)CCCCCCCCCCCCCCCCCCC(=O)O)C(=O)O)C(=O)N[C@@H](CC(N)=O)C(=O)N[C@@H]([C@@H](C)O)C(=O)N[C@@H](C)C(=O)N[C@@H]([C@@H](C)O)C(=O)N1)[C@@H](C)O)C(C)C)C(=O)N[C@@H](CC(C)C)C(=O)N1CCC[C@H]1C(=O)N1CCC[C@H]1C(=O)N[C@H](C(=O)N[C@@H](CC(N)=O)C(=O)N[C@H](C(=O)NCC(=O)N[C@@H](CO)C(=O)N[C@@H](Cc1c[nH]cn1)C(=O)N[C@H](C(=O)N[C@@H](Cc1ccc(O)cc1)C(N)=O)[C@@H](C)O)C(C)C)[C@@H](C)O) [N-alpha-[(S)-4-Carboxy-4-(19-carboxynonadecanoylamino)butyryl]-Gly-[Arg1,His35]-pramlintide] | 0.0875 nM | 0.045 nM
{C20 diacid-γGlu}-CNTATCATQRLAEFLHHSSNNFGPILPPTNVGSNTP-NH2 (disulfide 1-6; SMILES CC[C@H](C)[C@H](NC(=O)[C@@H]1CCCN1C(=O)CNC(=O)[C@H](Cc1ccccc1)NC(=O)[C@H](CC(N)=O)NC(=O)[C@H](CC(N)=O)NC(=O)[C@H](CO)NC(=O)[C@H](CO)NC(=O)[C@H](Cc1c[nH]cn1)NC(=O)[C@H](Cc1c[nH]cn1)NC(=O)[C@H](CC(C)C)NC(=O)[C@H](Cc1ccccc1)NC(=O)[C@H](CCC(=O)O)NC(=O)[C@H](C)NC(=O)[C@H](CC(C)C)NC(=O)[C@H](CCCNC(=N)N)NC(=O)[C@H](CCC(N)=O)NC(=O)[C@@H](NC(=O)[C@H](C)NC(=O)[C@@H]1CSSC[C@H](NC(=O)CC[C@H](NC(=O)CCCCCCCCCCCCCCCCCCC(=O)O)C(=O)O)C(=O)N[C@@H](CC(N)=O)C(=O)N[C@@H]([C@@H](C)O)C(=O)N[C@@H](C)C(=O)N[C@@H]([C@@H](C)O)C(=O)N1)[C@@H](C)O)C(=O)N[C@@H](CC(C)C)C(=O)N1CCC[C@H]1C(=O)N1CCC[C@H]1C(=O)N[C@H](C(=O)N[C@@H](CC(N)=O)C(=O)N[C@H](C(=O)NCC(=O)N[C@@H](CO)C(=O)N[C@@H](CC(N)=O)C(=O)N[C@H](C(=O)N1CCC[C@H]1C(N)=O)[C@@H](C)O)C(C)C)[C@@H](C)O) [N-alpha-[(S)-4-Carboxy-4-(19-carboxynonadecanoylamino)butyryl]-[des1,Glu14,His17,Pro37]-pramlintide] | 0.106 nM | 0.0795 nM
{C20 diacid-γGlu}-GRCNTATCATQRLAEFLHHSSNNFGPILPPTNVGSHTY-NH2 (disulfide 3-8; SMILES CC[C@H](C)[C@H](NC(=O)[C@@H]1CCCN1C(=O)CNC(=O)[C@H](Cc1ccccc1)NC(=O)[C@H](CC(N)=O)NC(=O)[C@H](CC(N)=O)NC(=O)[C@H](CO)NC(=O)[C@H](CO)NC(=O)[C@H](Cc1c[nH]cn1)NC(=O)[C@H](Cc1c[nH]cn1)NC(=O)[C@H](CC(C)C)NC(=O)[C@H](Cc1ccccc1)NC(=O)[C@H](CCC(=O)O)NC(=O)[C@H](C)NC(=O)[C@H](CC(C)C)NC(=O)[C@H](CCCNC(=N)N)NC(=O)[C@H](CCC(N)=O)NC(=O)[C@@H](NC(=O)[C@H](C)NC(=O)[C@@H]1CSSC[C@H](NC(=O)[C@H](CCCNC(=N)N)NC(=O)CNC(=O)CC[C@H](NC(=O)CCCCCCCCCCCCCCCCCCC(=O)O)C(=O)O)C(=O)N[C@@H](CC(N)=O)C(=O)N[C@@H]([C@@H](C)O)C(=O)N[C@@H](C)C(=O)N[C@@H]([C@@H](C)O)C(=O)N1)[C@@H](C)O)C(=O)N[C@@H](CC(C)C)C(=O)N1CCC[C@H]1C(=O)N1CCC[C@H]1C(=O)N[C@H](C(=O)N[C@@H](CC(N)=O)C(=O)N[C@H](C(=O)NCC(=O)N[C@@H](CO)C(=O)N[C@@H](Cc1c[nH]cn1)C(=O)N[C@H](C(=O)N[C@@H](Cc1ccc(O)cc1)C(N)=O)[C@@H](C)O)C(C)C)[C@@H](C)O) | 0.0895 nM | 0.0675 nM
{C20 diacid-γGlu}-GRCNTATCATQRLAEFLVHSSNNFGPILPPTNVGSNTP-NH2 (disulfide 3-8; SMILES CC[C@H](C)[C@H](NC(=O)[C@@H]1CCCN1C(=O)CNC(=O)[C@H](Cc1ccccc1)NC(=O)[C@H](CC(N)=O)NC(=O)[C@H](CC(N)=O)NC(=O)[C@H](CO)NC(=O)[C@H](CO)NC(=O)[C@H](Cc1c[nH]cn1)NC(=O)[C@@H](NC(=O)[C@H](CC(C)C)NC(=O)[C@H](Cc1ccccc1)NC(=O)[C@H](CCC(=O)O)NC(=O)[C@H](C)NC(=O)[C@H](CC(C)C)NC(=O)[C@H](CCCNC(=N)N)NC(=O)[C@H](CCC(N)=O)NC(=O)[C@@H](NC(=O)[C@H](C)NC(=O)[C@@H]1CSSC[C@H](NC(=O)[C@H](CCCNC(=N)N)NC(=O)CNC(=O)CC[C@H](NC(=O)CCCCCCCCCCCCCCCCCCC(=O)O)C(=O)O)C(=O)N[C@@H](CC(N)=O)C(=O)N[C@@H]([C@@H](C)O)C(=O)N[C@@H](C)C(=O)N[C@@H]([C@@H](C)O)C(=O)N1)[C@@H](C)O)C(C)C)C(=O)N[C@@H](CC(C)C)C(=O)N1CCC[C@H]1C(=O)N1CCC[C@H]1C(=O)N[C@H](C(=O)N[C@@H](CC(N)=O)C(=O)N[C@H](C(=O)NCC(=O)N[C@@H](CO)C(=O)N[C@@H](CC(N)=O)C(=O)N[C@H](C(=O)N1CCC[C@H]1C(N)=O)[C@@H](C)O)C(C)C)[C@@H](C)O) [N-alpha-[(S)-4-Carboxy-4-(19-carboxynonadecanoylamino)butyryl]-Gly-[Arg1,Glu14,Pro37]-pramlintide] | 0.0505 nM | 0.0495 nM

The remaining lines, values ahead:

CTa receptor human EC50 [1] | Amylin receptor human EC50 [2] | Binder
0.075 nM | 0.0525 nM | {C20 diacid-γGlu}-GRCNTATCATQRLANFLVHSSNNFGPILPPTNVGSNTP-NH2 (disulfide 3-8; SMILES CC[C@H](C)[C@H](NC(=O)[C@@H]1CCCN1C(=O)CNC(=O)[C@H](Cc1ccccc1)NC(=O)[C@H](CC(N)=O)NC(=O)[C@H](CC(N)=O)NC(=O)[C@H](CO)NC(=O)[C@H](CO)NC(=O)[C@H](Cc1c[nH]cn1)NC(=O)[C@@H](NC(=O)[C@H](CC(C)C)NC(=O)[C@H](Cc1ccccc1)NC(=O)[C@H](CC(N)=O)NC(=O)[C@H](C)NC(=O)[C@H](CC(C)C)NC(=O)[C@H](CCCNC(=N)N)NC(=O)[C@H](CCC(N)=O)NC(=O)[C@@H](NC(=O)[C@H](C)NC(=O)[C@@H]1CSSC[C@H](NC(=O)[C@H](CCCNC(=N)N)NC(=O)CNC(=O)CC[C@H](NC(=O)CCCCCCCCCCCCCCCCCCC(=O)O)C(=O)O)C(=O)N[C@@H](CC(N)=O)C(=O)N[C@@H]([C@@H](C)O)C(=O)N[C@@H](C)C(=O)N[C@@H]([C@@H](C)O)C(=O)N1)[C@@H](C)O)C(C)C)C(=O)N[C@@H](CC(C)C)C(=O)N1CCC[C@H]1C(=O)N1CCC[C@H]1C(=O)N[C@H](C(=O)N[C@@H](CC(N)=O)C(=O)N[C@H](C(=O)NCC(=O)N[C@@H](CO)C(=O)N[C@@H](CC(N)=O)C(=O)N[C@H](C(=O)N1CCC[C@H]1C(N)=O)[C@@H](C)O)C(C)C)[C@@H](C)O) [N-alpha-[(S)-4-Carboxy-4-(19-carboxynonadecanoylamino)butyryl]-Gly-[Arg1,Pro37]-pramlintide]
0.193 nM | 0.0745 nM | {C20 diacid-γGlu}-RCNTATCATQRLANFLVHSSNNFGPILPPTNVGSHTY-NH2 (disulfide 2-7; SMILES CC[C@H](C)[C@H](NC(=O)[C@@H]1CCCN1C(=O)CNC(=O)[C@H](Cc1ccccc1)NC(=O)[C@H](CC(N)=O)NC(=O)[C@H](CC(N)=O)NC(=O)[C@H](CO)NC(=O)[C@H](CO)NC(=O)[C@H](Cc1c[nH]cn1)NC(=O)[C@@H](NC(=O)[C@H](CC(C)C)NC(=O)[C@H](Cc1ccccc1)NC(=O)[C@H](CC(N)=O)NC(=O)[C@H](C)NC(=O)[C@H](CC(C)C)NC(=O)[C@H](CCCNC(=N)N)NC(=O)[C@H](CCC(N)=O)NC(=O)[C@@H](NC(=O)[C@H](C)NC(=O)[C@@H]1CSSC[C@H](NC(=O)[C@H](CCCNC(=N)N)NC(=O)CC[C@H](NC(=O)CCCCCCCCCCCCCCCCCCC(=O)O)C(=O)O)C(=O)N[C@@H](CC(N)=O)C(=O)N[C@@H]([C@@H](C)O)C(=O)N[C@@H](C)C(=O)N[C@@H]([C@@H](C)O)C(=O)N1)[C@@H](C)O)C(C)C)C(=O)N[C@@H](CC(C)C)C(=O)N1CCC[C@H]1C(=O)N1CCC[C@H]1C(=O)N[C@H](C(=O)N[C@@H](CC(N)=O)C(=O)N[C@H](C(=O)NCC(=O)N[C@@H](CO)C(=O)N[C@@H](Cc1c[nH]cn1)C(=O)N[C@H](C(=O)N[C@@H](Cc1ccc(O)cc1)C(N)=O)[C@@H](C)O)C(C)C)[C@@H](C)O) [N-alpha-[(S)-4-Carboxy-4-(19-carboxynonadecanoylamino)butyryl]-[Arg1,His35]-pramlintide]
